Paper PMC11298593, “ArcS from Thermococcus kodakarensis transfers L-lysine to preQ0 nucleoside derivatives as minimum substrate RNAs” (The Journal of Biological Chemistry, 2024)

Legend:
purified protein [1] = substrate: N#Cc1cn([C@@H]2O[C@H](COP(=O)(O)O)[C@@H](O)[C@H]2O)c2nc(N)[nH]c(=O)c12; test: purified protein; assay type: biochemical, Thermococcus kodakarensis; details: 200 μM lysine co-substrate, pH 7.6, 5 mM MgCl2, 50 mM KCl, no 2-mercaptoethanol, 60 °C, unit μM from text b23 (table heading prints μmol)
purified protein [2] = substrate: NCCCC[C@H](N)C(=O)O; test: purified protein; assay type: biochemical, Thermococcus kodakarensis; details: 204 μM S. cerevisiae tRNA-Phe-preQ0 co-substrate, pH 7.6, 5 mM MgCl2, 50 mM KCl, 60 °C, labelled compound, unit μM from text b13 (table heading prints μmol)

B1: ArcS and RaSEA complex (ArcS-RaSEA complex) (Thermococcus kodakarensis KOD1) (protein)
chain: MEVIKHEGPGRLGVVRLGDYSFRTPALVGIDFTLSPFNSFFHPKEPGEYDFNLAPSIPLGFYTPDEVIQKAIGRLWSVNYDGFNAFYLPALRRTEYLEEFFKIIDRHNFDAVYLGNSKILIKEYRYFVRILRELRERFPNVMIIADLEPFFYPLAVYLGIDAFDTRSLKLYDFEGKGFTQFSPFLWSNEPNSLDFAREVILLVRKALEEGKLRYLVENFFPTQYNAGILRIADLEHPDYLEKYTPIQKETVYFISDASIRRPEVKRWHERVLERFTPPKNVELLLLFPCSAKKPYSFSRSHTLYRRAVKEALGSGTSKVHELILTSPFGVVPREWEWLAKYDIVVTGHWSEEEIKPAAELLAKTLEKYPEDIPIVAHLDEAYVEIAKLASELSGREIIFTDVKNGTTSHESLRSLTETLREFQIEGTKEDRTYRYFENIRKVFDFYFGVGAGEAILPENGQVKGSKMLRIFVEGQQTGTFTDGVISVTPYGMQRIYDALKSYWVKIDFELRGDVFAVGVEEADPRIRPDDIVGIVRDEKVVGVGKAVLSGEEMVRAKKGVAVKVRKRV
notes: recombinant complex expressed in E. coli, purified aerobically (RaSEA apo, no Fe-S cluster); His x 6-ArcS given for the co-expression; with Archaeosine synthase subunit beta
Purified protein [1]
  Km: 433.4 ± 6.0 µM
  kcat: 0.387 ± 0.0617 s⁻¹
Purified protein [2]
  Km: 40.9 ± 8.7 µM
  kcat: 0.102 ± 0.0117 s⁻¹
